In publication doi:10.1101/2022.02.25.481886:

Molecular target: RFP-VAP27-1 (Arabidopsis) (UniProt Q8VZ95)
Test: FRET or BRET

Chain of UniProt Q8VZ95 (Q8VZ95 whole entry): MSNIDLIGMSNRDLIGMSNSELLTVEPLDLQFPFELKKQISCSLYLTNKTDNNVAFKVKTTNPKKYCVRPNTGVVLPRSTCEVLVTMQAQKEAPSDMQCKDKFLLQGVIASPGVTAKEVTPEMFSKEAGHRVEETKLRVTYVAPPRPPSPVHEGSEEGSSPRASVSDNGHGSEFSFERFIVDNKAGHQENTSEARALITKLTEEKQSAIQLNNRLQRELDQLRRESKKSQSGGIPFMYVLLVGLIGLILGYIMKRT

Question: GFP-TraB1b (natural protein) was tested. Which fluorescence lifetime of the GFP donor with the RFP acceptor did it give?
Answer: Its fluorescence lifetime of the GFP donor with the RFP acceptor is 2.21 ns.
